Assay results reported in patent publication US20110243928A1 (published 2011).

Legend:
[1] = molecular target: T1, E. coli-expressed recombinant det-1 tagged human IL-13 (human, UniProt P35225 35-146); experiment: competition ELISA: inhibition of det-1 tagged human IL-13 binding to human IL-13Rα2-Fc
T1 construct: also called Det-1 tagged human IL-13 (made in-house); not shown: det-1 tag

[2] = molecular target: T2, E. coli-expressed recombinant cynomolgus IL-13 (cynomolgus, UniProt Q5I6E4 21-132 (Macaca thibetana entry)); experiment: cynomolgus IL-13 binding sandwich ELISA
T2 construct: also called cyno IL13 (CA); cIL-13
T2 chain: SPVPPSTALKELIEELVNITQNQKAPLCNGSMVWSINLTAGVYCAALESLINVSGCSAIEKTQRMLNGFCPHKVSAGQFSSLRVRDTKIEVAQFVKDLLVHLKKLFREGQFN

[3] = molecular target: T2, E. coli-expressed recombinant …; experiment: BIAcore analysis 1, antibody captured, IL-13 in solution
Protocol: Completed for both human and cynomolgus IL-13 (E. coli-expressed protein). The quoted KD values are the average from 5 different IL-13 concentration curves (done in triplicate). Note that mass transfer issues were apparent in this analysis and that a modified experimental protocol (to correct for this issue) has been completed in analysis 4 (where no mass transfer issues were present).
The kinetics analysis was performed on a Biacore 3000 machine, using an antibody capture method. Briefly, for the chimeric 6A1 and humanised antibody constructs Protein A capture was used, whilst for the parental murine 6A1 antibody, capture was by a anti-mouse Fc antibody supplied by Biacore. Briefly, the method is as follows, the capture ligand was immobilised to a CM5 Biosensor chip by primary amine coupling in accordance with Biacore standard protocols and using the reagents supplied in Biacores' primary amine coupling kit. The method involves activation CM5 sensor surface by passing a solution of 50 mM N-hydroxy-succinimide (NHS) and 200 mM N-ethyl-N′-dimethylaminopropyl […] (EDC) over the surface. Then, the capture ligand (dissolved in acetate buffer pH5 or pH4.5) was coupled to the activated sensor surface after which any still activated esters were blocked by an injection of 1M ethanolamine hydrochloride, pH8.5.
The candidate antibody was then passed over the Protein A or anti-mouse Fc antibody surface, depending on whether it was human or mouse in origin and captured. Once a stable binding signal was seen IL13 was passed over the captured antibody surface at various defined concentrations. The subsequent binding curves were analysed with Biacore analysis software BIAeval v4.1 to determine kinetics. The experiments were carried out using Biacore HBS-EP buffer.

[4] = molecular target: T3, alanine scanning peptide 68 (human, N-terminal biotin); experiment: alanine scanning peptide ELISA, n=2
T3 peptide: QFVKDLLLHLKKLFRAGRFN
Text: (§1) An ELISA method was used to detect binding of immobilised biotinylated peptide to the parental mAb 6A1 and L1+A1.
(§2) This was to determine if there was any major plate-to-plate variation and in both cases, there was no apparent variation.

[5] = molecular target: T4, alanine scanning peptide 64 (human, N-terminal biotin); experiment: alanine scanning peptide ELISA, n=2
T4 construct: the entry already carries the change; also called K104A peptide
T4 peptide: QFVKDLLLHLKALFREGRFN
Text: as §1, §2

[6] = molecular target: T5, alanine scanning peptide 65 (human, N-terminal biotin); experiment: alanine scanning peptide ELISA, n=2
T5 construct: the entry already carries the change; also called L105A peptide
T5 peptide: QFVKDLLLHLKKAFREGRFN
Text: as §1, §2

[7] = molecular target: T6, alanine scanning peptide 63 (human, N-terminal biotin); experiment: alanine scanning peptide ELISA, n=2
T6 construct: the entry already carries the change; also called K103A peptide
T6 peptide: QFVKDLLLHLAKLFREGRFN
Text: as §1, §2

[8] = molecular target: T7, alanine scanning peptide 67 (human, N-terminal biotin); experiment: alanine scanning peptide ELISA, n=2
T7 construct: the entry already carries the change; also called R107A peptide
T7 peptide: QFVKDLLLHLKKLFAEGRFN
Text: as §1, §2

[9] = molecular target: T8, alanine scanning peptide 62 (human, N-terminal biotin); experiment: alanine scanning peptide ELISA, n=2
T8 peptide: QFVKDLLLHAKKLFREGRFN
Text: as §1, §2

[10] = molecular target: T9, alanine scanning peptide 1 (parental sequence peptide) (human, N-terminal biotin); experiment: alanine scanning peptide ELISA, n=2
T9 construct: also called parental peptide
T9 peptide: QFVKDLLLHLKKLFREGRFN
Text: as §1, §2

[11] = molecular target: T10, alanine scanning peptide 66 (human, N-terminal biotin); experiment: alanine scanning peptide ELISA, n=2
T10 construct: the entry already carries the change; also called F106A peptide
T10 peptide: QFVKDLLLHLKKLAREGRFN
Text: as §1, §2

[12] = molecular target: T11, native (PBMC derived) human IL-13 (human, UniProt P35225 35-146, limits assumed); experiment: ELISA on Th2 cell supernatant read against a standard curve
T11 construct: IL-13 in supernatant of stimulated human CD4+ Th2 cells; also called native human IL-13; Native IL-13
T11 sequence (P35225 other isoform, or with tags, fused parts or gaps limits assumed): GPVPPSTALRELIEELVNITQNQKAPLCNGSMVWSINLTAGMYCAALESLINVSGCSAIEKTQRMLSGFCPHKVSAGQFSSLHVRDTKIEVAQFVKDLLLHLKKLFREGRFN

[13] = molecular target: T2, E. coli-expressed recombinant …; experiment: cell-based or functional assay
[14] = molecular target: T12, E. coli-expressed recombinant human IL-13 (human, UniProt P35225 35-146); experiment: cell-based or functional assay
T12 sequence (P35225 other isoform, or with tags, fused parts or gaps): as the sequence (P35225 other isoform, or with tags, fused parts or gaps limits assumed) above

[15] = molecular target: E. coli-expressed recombinant Q130 human IL-13 (human, UniProt P35225 35-146, limits assumed); experiment: cell-based or functional assay
E. coli-expressed recombinant Q130 human IL-13, sequence (P35225 35-146 limits assumed): as the sequence (P35225 other isoform, or with tags, fused parts or gaps limits assumed) above, with R110Q counted along it

[16] = molecular target: mammalian-expressed (CHO cell) human IL-13 (human, UniProt P35225 35-146, limits assumed); experiment: cell-based or functional assay
mammalian-expressed (CHO cell) human IL-13, sequence (P35225 other isoform, or with tags, fused parts or gaps limits assumed): as the sequence (P35225 other isoform, or with tags, fused parts or gaps limits assumed) above

[17] = molecular target: T13, 16mer biotinylated human IL-13 peptide number 24 (human, N-terminal biotin; C-terminal amide); experiment: BIAcore analysis 3, antibody over biotinylated peptide on SA chip
T13 construct: format Biotin-SGSG-PEPTIDE-amide; also called Peptide 24
T13 peptide: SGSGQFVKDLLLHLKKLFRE
Protocol: Completed for the 16mer biotinylated human IL-13 peptide number 24 (identified as the linear binding epitope for parental mAb 6A1, see section 6.7). Note that the absolute KD values obtained for binding to peptide ligands are often quite different to those seen for binding to whole protein targets.
The kinetics analysis was performed on a Biacore 3000 machine using direct binding of antibody to immobilised IL-13 peptide. Briefly, IL-13 biotinylated peptide was captured using a Biacore SA (strepavidin) Biosensor chip. The antibodies were then passed over the sensor surface at various concentrations. The subsequent binding curves were analysed with Biacore analysis software BIAeval 4.1 to determine kinetics. The experiment was carried out using Biacore HBS-EP buffer

[18] = molecular target: T12, E. coli-expressed recombinant human …; experiment: human IL-13 binding sandwich ELISA

T1 sequence (P35225 other isoform, or with tags, fused parts or gaps): as the sequence (P35225 other isoform, or with tags, fused parts or gaps limits assumed) above

B1: monoclonal antibody 6A1 (antibody, IgG1, V domains shown)
VH: EIQLQQSVAELVRPGASVRLSCTASGFYIKDTYMHWVIQRPEQGLEWIGTIDPANGNTKYVPKFQGKATITADTSSNTAYLRLSSLTSEDTAIYYCARSIYDDYHYDDYYAMDYWGQGTSVTVSS
VL: DVLMTQTPLSLPVSLGDQASISCRSSQNIVHINGNTYLEWYLQKPGQSPKLLIYKISDRFSGVPDRFSGSGSGTDFTLKISRVEAEDLGVYYCFQGSHVPWTFGGGTKLEIK
notes: also called 6A1 parental mAb; parental mouse mAb 6A1
[1]
  IC50: 0.02 µg/mL
[2]
  EC50: 0.039 µg/mL
[3]
  Kd: 0.061 nM
  koff: 5.6e-05 s⁻¹
  kon: 914000 M⁻¹ s⁻¹
[4]
  Average A490: 3.58 A490
[5]
  Average A490: 1.47 A490
[6]
  Average A490: 3.85 A490
[7]
  Average A490: 3.28 A490
[8]
  Average A490: 0.595 A490
[9]
  Average A490: 3.49 A490
[10]
  Average A490: 3.54 A490
[11]
  Average A490: 3.6 A490
[12]
  Native IL-13 (ng/ml) detected in Th2 supernatant: 22.5 ng/mL
[13]
  Mean ND50 for 2 assays: 0.078 µg/mL
[14]
  Mean ND50 for 2 assays: 0.193 µg/mL
[15]
  Mean ND50 for 2 assays: 0.213 µg/mL
[16]
  Mean ND50 for 2 assays: 0.44 µg/mL
[17]
  Kd: 3.11 nM
  koff: 0.000915 s⁻¹
  kon: 295000 M⁻¹ s⁻¹
[18]
  EC50: 0.049 µg/mL

B2: L1+A1 (antibody, human IgG1, kappa, V domains shown)
VH: QVQLVQSGAEVKKPGSSVKVSCKASGFYIKDTYMHWVRQAPGQGLEWMGTIDPANGNTKYVPKFQGRVTITADESTSTAYMELSSLRSEDTAVYYCARSIYDDYHYDDYYAMDYWGQGTLVTVSS
VL: DIVMTQSPLSLPVTPGEPASISCRSSQNIVHINGNTYLEWYLQKPGQSPRLLIYKISDRFSGVPDRFSGSGSGTDFTLKISRVEADDVGIYYCFQGSHVPWTFGQGTKLEIKR
notes: Humanised 6A1, VH construct A1 and VL construct L1, human gamma1 wild type / kappa constant regions; also called A1L1; humanised anti-IL-13 mAb L1+A1
[1]
  IC50: 0.113 µg/mL
[2]
  EC50: 0.021 µg/mL
[3]
  Kd: 0.035 nM
  koff: 1.55e-05 s⁻¹
  kon: 446000 M⁻¹ s⁻¹
[4]
  Average A490: 2.81 A490
[5]
  Average A490: 1.82 A490
[6]
  Average A490: 3.02 A490
[7]
  Average A490: 2.65 A490
[8]
  Average A490: 0.816 A490
[9]
  Average A490: 2.83 A490
[10]
  Average A490: 2.85 A490
[11]
  Average A490: 2.84 A490
[12]
  Native IL-13 (ng/ml) detected in Th2 supernatant: 25.1 ng/mL
[13]
  Mean ND50 for 2 assays: 0.078 µg/mL
[14]
  Mean ND50 for 2 assays: 0.428 µg/mL
[15]
  Mean ND50 for 2 assays: 0.438 µg/mL
[16]
  Mean ND50 for 2 assays: 0.975 µg/mL
[17]
  Kd: 9.03 nM
  koff: 0.0017 s⁻¹
  kon: 195000 M⁻¹ s⁻¹
[18]
  EC50: 0.018 µg/mL
